Among the data in paper doi:10.1101/2025.08.03.668247, “The structure of Egalitarian in complex with the K10 mRNA localization signal reveals a modular binding surface required for function” are Kd values, retold here.

Common to all, as to test: fluorescence anisotropy; FA: 20 mM HEPES-NaOH pH 7.5, 100 mM NaCl, 10% glycerol, 20 C, 10 nM FAM-RNA; competition: 150 nM Egl512-819 + 10 nM FAM-K10 TLS, same buffer
What all share (details): protein: recombinant; tags: N-terminal GST; label: 5'-6-FAM; hairpin with two bulges

The target in one series is T1, R753A (Drosophila melanogaster, UniProt Q9W1K4 512-819, R753A).
T1 sequence: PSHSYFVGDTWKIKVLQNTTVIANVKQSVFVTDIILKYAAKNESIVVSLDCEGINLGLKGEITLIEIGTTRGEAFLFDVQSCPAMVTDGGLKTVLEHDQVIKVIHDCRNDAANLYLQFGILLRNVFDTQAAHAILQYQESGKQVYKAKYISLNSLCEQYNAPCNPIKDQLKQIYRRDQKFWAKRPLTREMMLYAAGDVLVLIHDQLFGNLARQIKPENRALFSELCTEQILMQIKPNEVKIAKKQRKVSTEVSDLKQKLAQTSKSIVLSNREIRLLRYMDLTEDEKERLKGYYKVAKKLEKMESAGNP

The target in a further series is T2, R782E (Drosophila melanogaster, UniProt Q9W1K4 512-819, R782E).
T2 sequence: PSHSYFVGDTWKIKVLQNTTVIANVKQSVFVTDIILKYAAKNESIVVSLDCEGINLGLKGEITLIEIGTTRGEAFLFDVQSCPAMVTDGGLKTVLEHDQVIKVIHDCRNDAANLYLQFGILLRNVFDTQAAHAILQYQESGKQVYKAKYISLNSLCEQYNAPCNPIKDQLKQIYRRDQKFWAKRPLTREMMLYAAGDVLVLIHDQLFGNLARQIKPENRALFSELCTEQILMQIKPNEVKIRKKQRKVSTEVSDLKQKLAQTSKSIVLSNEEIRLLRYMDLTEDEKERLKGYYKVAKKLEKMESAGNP

In another series the target is T3, R788E (Drosophila melanogaster, UniProt Q9W1K4 512-819, R788E).
T3 sequence: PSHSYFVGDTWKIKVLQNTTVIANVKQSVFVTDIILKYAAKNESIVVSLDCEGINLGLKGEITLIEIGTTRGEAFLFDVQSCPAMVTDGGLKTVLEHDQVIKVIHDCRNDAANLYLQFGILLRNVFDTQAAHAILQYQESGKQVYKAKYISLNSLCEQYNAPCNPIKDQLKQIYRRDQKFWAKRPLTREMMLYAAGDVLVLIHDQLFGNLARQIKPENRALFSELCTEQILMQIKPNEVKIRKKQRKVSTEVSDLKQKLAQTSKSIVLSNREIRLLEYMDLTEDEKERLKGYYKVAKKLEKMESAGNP

A further series has as its target T4, K758E (Drosophila melanogaster, UniProt Q9W1K4 512-819, K758E).
T4 sequence: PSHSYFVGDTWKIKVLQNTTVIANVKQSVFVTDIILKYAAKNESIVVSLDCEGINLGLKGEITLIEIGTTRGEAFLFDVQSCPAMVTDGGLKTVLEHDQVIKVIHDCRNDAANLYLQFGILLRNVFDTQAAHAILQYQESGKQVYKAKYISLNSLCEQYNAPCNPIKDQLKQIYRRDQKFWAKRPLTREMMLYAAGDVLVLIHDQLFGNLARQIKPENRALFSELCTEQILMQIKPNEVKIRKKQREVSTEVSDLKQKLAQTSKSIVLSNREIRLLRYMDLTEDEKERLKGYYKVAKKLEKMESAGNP

The target of a further series is T5, R788A (Drosophila melanogaster, UniProt Q9W1K4 512-819, R788A).
T5 sequence: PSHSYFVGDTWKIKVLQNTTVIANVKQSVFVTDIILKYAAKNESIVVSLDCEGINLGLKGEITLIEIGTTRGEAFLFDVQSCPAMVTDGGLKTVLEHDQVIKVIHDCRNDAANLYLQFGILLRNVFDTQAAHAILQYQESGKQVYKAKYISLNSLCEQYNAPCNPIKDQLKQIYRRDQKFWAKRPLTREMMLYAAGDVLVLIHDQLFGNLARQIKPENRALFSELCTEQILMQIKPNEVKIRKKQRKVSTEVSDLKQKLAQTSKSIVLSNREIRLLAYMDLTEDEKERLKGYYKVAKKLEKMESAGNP

For another series, the target named is T6, K755E (Drosophila melanogaster, UniProt Q9W1K4 512-819, K755E).
T6 sequence: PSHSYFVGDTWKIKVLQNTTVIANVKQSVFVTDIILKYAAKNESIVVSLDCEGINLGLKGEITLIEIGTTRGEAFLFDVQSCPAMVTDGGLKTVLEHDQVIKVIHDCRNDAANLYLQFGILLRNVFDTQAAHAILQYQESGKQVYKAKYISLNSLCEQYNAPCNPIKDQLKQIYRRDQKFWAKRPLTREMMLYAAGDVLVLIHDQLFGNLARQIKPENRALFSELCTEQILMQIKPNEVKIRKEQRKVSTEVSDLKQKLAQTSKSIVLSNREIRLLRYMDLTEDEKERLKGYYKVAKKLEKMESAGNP

With CUUGAUUGUAUUUUUAAAUUAAUUCUUAAAAACUACAAAUUAAG (structured_RNA) [K10 TLS (FAM)], the Kd with R753A is 95 ± 5 nM; with R782E, 235 ± 30 nM; with R788E, 313 ± 23 nM; with K758E, 380 ± 65 nM; with R788A, 207 ± 43 nM; with K755E, 133 ± 2 nM.
